Entries after “also recorded” stand apart in the source; their conditions may differ.
What was measured:
[1] = Poly(ADP-ribose) hydrolysis (autoradiography, high resolution PAGE, HPLC); assay type: biochemical; settings: [32P]poly(ADP-ribose) or poly(ADP-ribose)PARP; 37° C.; autoradiography / PAGE / HPLC
Description: Poly(ADP-ribose) hydrolysis by autoradiography. [^32P]poly(ADP-ribose)PARP (500 ng of PARP with poly(ADP-ribose) was incubated (37° C., 2 h) with 2 μM ARH in 25 μl of 50 mM potassium phosphate buffer, pH 7.5, with or without 10 mM MgCl2 and/or 5 mM DTT. Reactions were stopped by adding 6 μl of 5× Laemmli buffer. Samples (20 μl) of proteins were separated by SDS-PAGE in 4-20% gels and transferred to nitrocellulose membranes that were exposed to X-ray film (Kodak) for 10 h.
Hydrolysis of poly(ADP-ribose) by PARG and ARH3. Purified [^32P] poly(ADP-ribose) (5.5×10^5 cpm, ˜300 nM ADP-ribose) was incubated for the indicated time at 37° C. in 25 μl of 50 mM potassium phosphate, pH 7.5, containing 10 mM MgCl2 and 5 mM DTT with enzyme or other additions as indicated and terminated by addition of 25 μl of 2× electrophoresis buffer (Invitrogen). [^32P]AMP was generated by incubation (37° C., 3 h) of 10 μM [^32P] NAD (10 μCi/reaction) with pyrophosphatase (40 units/mg from SIGMA, 1 mg/ml) in 25 μl of 50 mM KPO4, pH 7.5, and 10 mM MgCl2. [^32P] ADP-ribose was generated in a 25 μl mixture containing 50 mM KPO4, pH 7.5, 25 μg of activated CTA, 10 μM [^32P] NAD (10 μCi/reaction), 10 mM MgCl2, and 5 mM DTT, which was incubated at 30° C. overnight. [^32P] phosphoribosyl-AMP was generated by incubation (37° C., 3 h) of [^32P]poly(ADP-ribose) (5.5×10^5 cpm, ˜300 nM ADP-ribose) with Crotalus adamanteus phosphodiesterase (10 mU/reaction), 25 μl of 50 mM KPO4, pH 7.5, 10 mM MgCl2, and 5 mM DTT. Identities of AMP and ADP-ribose standards were confirmed by HPLC on C18 and SAX columns respectively.
High resolution Polyacrylamide Gel Electrophoresis (PAGE). Polyacrylamide (20%) gels (20×20×0.15 cm) containing polyacrylamide and bis(acrylamide), in a ratio of 19:1, 100 mM Tris-borate, pH 8.3, 2 mM EDTA, 4.4 mM ammonium persulfate, and 3.4 mM TEMED with electrophoresis carried out for 2 h at 400V with 50 mM Tris-borate, pH 8.3, 1 mM EDTA, before application of samples (15 μl) were used for analysis of poly(ADP-ribose) degradation. Subsequent electrophoresis at 400V was stopped when bromophenol blue (BPB) had moved 9 cm from the origin. Gels were exposed to X-ray films (Kodak).
HPLC analysis. HPLC, Hewlett-Packard series 1100 equipped with a diode-array spectrophotometric detector set at 254 nm, was used for separation of reaction products. For anion exchange perfusion chromatography, Zorbax SAX column (4.6×250 mm; DuPont, Wilmington Del.) was washed with 20 mM potassium phosphate, pH 4.5, for 30 min, followed by a linear gradient of 0-1M NaCl in the same buffer for 10 min (30-40 min), then same buffer with 1M NaCl for 10 min (40-50 min) at a flow rate of 1 ml/min. Nicotinamide was eluted at 3 min, NAD at 10 min, and ADP-ribose at 40 min. For reverse phase, Discovery C18 column (4.6×250 mm; SUPELCO, Bellefonte Pa.) was used. Samples were separated isocratically with 100 mM potassium phosphate, pH 6.0 containing 7% methanol at a same flow rate of 1 ml/min. ADP-ribose was eluted at 6 min, NAD at 8 min, nicotinamide 9 min.
Poly(ADP-ribose)PARP was used as substrate to assay potential poly(ADP-ribose) hydrolase activities of recombinant ARH1, 2 or 3. Products were identified by autoradiography and HPLC. Fractions (1 ml) were collected for liquid scintillation counting to quantify [^14C]ADP-ribose, which was eluted in fractions from 34 min to 43 min. Because ARH1 activity may require both DTT and Mg^2+, depending on species (Takada et al. (1993) J. Biol. Chem. 268:17837-17843; Moss et al. (1992) J. Biol. Chem. 267:10481-10488), these reactions were performed with or without 10 mM MgCl2, and/or 5 mM DTT. […] Degradation of [^32P]poly(ADP-ribose) by ARH3 was enhanced by 10 mM MgCl2 (FIG. 4A). Data were similar with mouse ARH3.
Samples of [^14C] ADP-ribosylated PARP (250 ng, 15,000 cpm, ˜850 nM ADP-ribose) were incubated at 37° C. (total volume, 100 μl) with human ARH3 as indicated. […]

ADP-ribose binding assay = settings: 1 μM ARH3, 3 μM [14C]ADP-ribose, 30° C., 16 h
Description: ADP-ribose binding assay. [^14C]ADP-ribose was generated by incubation overnight at 30° C. of 80 μM (10 μCi) [adenine-U-^14C]NAD with 50 μl of RT6.2 solution (5 nmol/h NADase activity; gift from Dr. Sunhee Park, NHLBI, National Institutes of Health, Bethesda, Md.) in 250 μl of 50 mM potassium phosphate, pH 7.5, and purified by HPLC using Zorbax Sax column as described above. [^14C]ADP-ribose, eluted at 40 min, was stored at −20° C.
To assess protein binding, 1 μM human wild type or D77N/D78N mutant ARH3 was incubated (30° C., 16 h) with 3 μM [^14C]ADP-ribose in 50 mM potassium phosphate buffer, pH 7.5, without or with 10 mM MgCl2, and/or 5 mM DTT (total volume 100 μl). A sample (90 μl) was applied to a column (0.5×4 cm) of Affi-Gel boronate (100 mg, Bio-Rad) which was equilibrated with 0.1 M glycine, pH 9.0, containing 0.1 M NaCl, with or without 10 mM MgCl2, and/or 5 mM DTT, and eluted with five 1-ml portions of the same solution. The total eluate, containing ARH with bound ADP-ribose was collected for liquid scintillation counting.
After incubation of wild-type or mutant ARH3 (1 μM) with [^14C]ADP-ribose (3 μM) (30° C., 16 h) without or with 10 mM MgCl2 and/or 5 mM DTT (total volume 100 μl), unbound ADP-ribose was removed by binding to Affi-gel boronate (Bio-Rad), and ARH3 with ADP-ribose bound, was collected for radioassay. […]

- [14C]ADP-ribose binding (ADP-ribose binding assay): similar
B1: ARH3 (D77N/D78N): human ARH3 mutant with dual amino acid replacement D77N/D78N (protein)
chain: MAAAAMAAAAGGGAGAARSLSRFRGCLAGALLGDCVGSFYEAHDTVDLTSVLRHVQSLEPDPGTPGSERTEALYYTNNTAMARALVQSLLAKEAFDEVDMAHRFAQEYKKDPDRGYGAGVVTVFKKLLNPKCRDVFEPARAQFNGKGSYGNGGAMRVAGISLAYSSVQDVQKFARLSAQLTHASSLGYNGAILQALAVHLALQGESSSEHFLKQLLGHMEDLEGDAQSVLDARELGMEERPYSSRLKKIGELLDQASVTREEVVSELGNGIAAFESVPTAIYCFLRCMEPDPEIPSAFNSLQRTLIYSISLGGDTDTIATMAGAIAGAYYGMDQVPESWQQSCEGYEETDILAQSLHRVFQKS
- Poly(ADP-ribose) hydrolysis (in words) [1]: inactive; also recorded: No activity

From patent publication US7670806B2, “ADP-ribosyl acceptor hydrolase 3 (ARH3) polypeptides and methods of use” (The United States of America as represented by the …, priority 2005, dated 2010)
